B1: HDV Ribozyme (parent)
chain: GGCCGGCAUGGUCCCAGCCUCCUCGCUGGCGCCGGCUGGGCAACAUUCCGAGGGGACCGUCCCCUCGGUAAUGGCGAAUGGGACCCA

Variants of: B1
Assay: self-cleavage, relative activity (ratio to wild type); higher = more cleavage; co-transcriptional

Row | Variant | self-cleavage
1 | GGCCGGCAUGGUCCCGGCCUCCUCGCUGGCGCCGGCUGGGCAACAUUCCGAGGGGACCGUCCCCUCGGUAAUGGCGCAUGGGACCCA [A16G A77C] | 0
2 | GGCCGGCAUGGUCCCUGCCUCCUCGCUGGCGCCGGCUGGGCAACAUUCCGAGGGGACCGUCCCCUCGGUAAUGGCGAGUGGGACCCA [A16U A78G] | 0.332
3 | GGCCGGCAUGGUCCCGGCCUCCUCGCUGGCGCCGGCUGGGCAACAUUCCGAGGGGACCGUCCCCUCGGUAUUGGCGAAUGGGACCCA [A16G A71U] | 1.01
4 | GGCCGGCAUGGUCCCGGCCUCCUCGCUGGCGCCGGCUGGGCAACAUUCCGAGGGGACCGUCCCCUCGGUACUGGCGAAUGGGACCCA [A16G A71C] | 0.575
5 | GGCCGGCAUGGUCCCGGCCUCCUCGCAGGCGCCGGCUGGGCAACAUUCCGAGGGGACCGUCCCCUCGGUAAUGGCGAAUGGGACCCA [A16G U27A] | 0.703
6 | GGCCGGCAUGGUCCCGGCCUCCUCGCUAGCGCCGGCUGGGCAACAUUCCGAGGGGACCGUCCCCUCGGUAAUGGCGAAUGGGACCCA [A16G G28A] | 0.131
7 | GGCCGGCAUGGUCCCGGCCUCCUCGCUGGCGCCGGCUGGGCAACAUUCCGAGGGGACCGUCCCCUUGGUAAUGGCGAAUGGGACCCA [A16G C66U] | 0.988
8 | GGCCGGCAUGGUCCCGGCCUCCUCGCUGGCGCCGGCUGGGCAACAUUCCGAGGGGACCGUCCCCUCGGUAAUUGCGAAUGGGACCCA [A16G G73U] | 0.391
9 | GGCCGGCAUGGUCCCGGCCUCCUCGCUGGCGCCGGCUGGGCAACAUUCCGAGGGGAACGUCCCCUCGGUAAUGGCGAAUGGGACCCA [A16G C57A] | 1.18
10 | GGCCGGCAUGGUCCCGGCCUCCUCGCUGGCGCCGGCUGGGCAACAUACCGAGGGGACCGUCCCCUCGGUAAUGGCGAAUGGGACCCA [A16G U47A] | 1.16
11 | GGCCGGCAUGGUCCCGGCCUCCUCGCUGGCGCCGGCUGGGCAACAUCCCGAGGGGACCGUCCCCUCGGUAAUGGCGAAUGGGACCCA [A16G U47C] | 0.962
12 | GGCCGGCAUGGUCCCGGCCUCCUCGCUGGUGCCGGCUGGGCAACAUUCCGAGGGGACCGUCCCCUCGGUAAUGGCGAAUGGGACCCA [A16G C30U] | 0.665
13 | GGCCGGCAUGGUCCCGGCCUCCUCGCUGGCGCUGGCUGGGCAACAUUCCGAGGGGACCGUCCCCUCGGUAAUGGCGAAUGGGACCCA [A16G C33U] | 0.802
14 | GGCCGGCAUGGUCCCGGCCUCCUCGCUGGCGUCGGCUGGGCAACAUUCCGAGGGGACCGUCCCCUCGGUAAUGGCGAAUGGGACCCA [A16G C32U] | 0.811
15 | GGCCGGCAUGGUCCCGGCCUCCUCGCUGGCGGCGGCUGGGCAACAUUCCGAGGGGACCGUCCCCUCGGUAAUGGCGAAUGGGACCCA [A16G C32G] | 0.145
16 | GGCCGGCAUGGUCCCGGCCUCCUCGCUGGCGACGGCUGGGCAACAUUCCGAGGGGACCGUCCCCUCGGUAAUGGCGAAUGGGACCCA [A16G C32A] | 0.107
17 | GGCCGGCAUGGUCCCGGCCUCCUCGCUGGCGCCGGCUGGGCAACAUUCCGAGGGGACCGUCCCCUCGGUAAUGGAGAAUGGGACCCA [A16G C75A] | 0.122
18 | GGCCGGCAUGGUCCCGGCCUCCUCGCUGGCGCCGGCUGGGCAACAUUCCGAGGGGACCGUCCCCUCUGUAAUGGCGAAUGGGACCCA [A16G G67U] | 0.831
19 | GGCCGGCAUGGUCCCGGCCUCCUCGCUGGCGCCGGCUGGGCAACAUUCCGAGGGGACCGUCCCCUCAGUAAUGGCGAAUGGGACCCA [A16G G67A] | 0.886
20 | GGCCGGCAUGGUCCCUGCCUCCUCGCUGGCGCCGGCUGGGCAACAUUCCGAGGGGACCGUCCCCUCGGUAAUGGCGAAUGGGACCCC [A16U A87C] | 1.04
21 | GGCCGGCAUGGUCCCGGCCUCAUCGCUGGCGCCGGCUGGGCAACAUUCCGAGGGGACCGUCCCCUCGGUAAUGGCGAAUGGGACCCA [A16G C22A] | 0.199
22 | GGCCGGCAUGGUCCCGGCCUCGUCGCUGGCGCCGGCUGGGCAACAUUCCGAGGGGACCGUCCCCUCGGUAAUGGCGAAUGGGACCCA [A16G C22G] | 0.185

Row | Variant | self-cleavage
23 | GGCCGGCAUGGUCCCUGCCUCCUCGCUGGCGCCGGCUGGGCAACAUUCCGAGGGGACCGUCCCCUCGGUAAUGGCGUAUGGGACCCA [A16U A77U] | 0.511
24 | GGCCGGCAUGGUCCCGGCCUUCUCGCUGGCGCCGGCUGGGCAACAUUCCGAGGGGACCGUCCCCUCGGUAAUGGCGAAUGGGACCCA [A16G C21U] | 0.0615
25 | GGCCGGCAUGGUCCCGGCCUCCUCGCUGGCGCCGGCUGGGCAACAUUCCGAGGGGACCGUCCCCUCGGUAAUGGCUAAUGGGACCCA [A16G G76U] | 1.29
26 | GGCCGGCAUGGUCCCGGCCUCCUCGCUGGCGCCGGCUGGGCAACAUUCCGAGGGGGCCGUCCCCUCGGUAAUGGCGAAUGGGACCCA [A16G A56G] | 0.864
27 | GGCCGGCAUGGUCCCGGCCUCCUCGCUGGCGCCGGCUGGGCAACAUUCCGAGGGGACCGUCCGCUCGGUAAUGGCGAAUGGGACCCA [A16G C63G] | 0.767
28 | GGCCGGCAUGGUCCCGGCCUCCUCGCUGUCGCCGGCUGGGCAACAUUCCGAGGGGACCGUCCCCUCGGUAAUGGCGAAUGGGACCCA [A16G G29U] | 0.0354
29 | GGCCGGCAUGGUCCCGGCCCCCUCGCUGGCGCCGGCUGGGCAACAUUCCGAGGGGACCGUCCCCUCGGUAAUGGCGAAUGGGACCCA [A16G U20C] | 0.128
30 | GGCCGGCAUGGUCCCUGCCUCCUCGCUGGCGCCGGCUGGGCAACUUUCCGAGGGGACCGUCCCCUCGGUAAUGGCGAAUGGGACCCA [A16U A45U] | 0.831
31 | GGCCGGCAUGGUCCCUGCCUCCUCGCUGGCGCCGGCUGGGCAACCUUCCGAGGGGACCGUCCCCUCGGUAAUGGCGAAUGGGACCCA [A16U A45C] | 0.462
32 | GGCCGGCAUGGUCCCGGCCUCCUCGCUGGCGCCGGCUGGGCAACAUUCCGAGGGGACCGUCCCCUCGGUAACGGCGAAUGGGACCCA [A16G U72C] | 0.831
33 | GGCCGGCAUGGUCCCGGCCUCCUCGCUGGCGCCGGCUGGGCAACAUUCCGAGGGGACCGUCCCUUCGGUAAUGGCGAAUGGGACCCA [A16G C64U] | 0.942
34 | GGCCGGCAUGGUCCCUGCCUCCUCGCUGGCGCCGGCUGGGCAACAUUCCGAGGGGACCGUCCCCUCGGUACUGGCGAAUGGGACCCA [A16U A71C] | 0.942
35 | GGCCGGCAUGGUCCCUGCCUCCUCGCUGGCGCCGGCUGGGCAACAUUCCGAGGGGACCGUCCCCUCGGUUAUGGCGAAUGGGACCCA [A16U A70U] | 0.764
36 | GGCCGGCAUGGUCCCGGCCUCCUCGCUGGCGCCGGCUGGGCAACAUUCCGAGGGGACCGCCCCCUCGGUAAUGGCGAAUGGGACCCA [A16G U60C] | 1.14
37 | GGCCGGCAUGGUCCCGGCCUCCUCGCUGGCGCCGGCUGGGCAAGAUUCCGAGGGGACCGUCCCCUCGGUAAUGGCGAAUGGGACCCA [A16G C44G] | 0.767
38 | GGCCGGCAUGGUCCCUGCCUCCUCGCUGGCGCCGGCUGGGCCACAUUCCGAGGGGACCGUCCCCUCGGUAAUGGCGAAUGGGACCCA [A16U A42C] | 0.262
39 | GGCCGGCAUGGUCCCGGCCUCCUCUCUGGCGCCGGCUGGGCAACAUUCCGAGGGGACCGUCCCCUCGGUAAUGGCGAAUGGGACCCA [A16G G25U] | 0.0875
40 | GGCCGGCAUGGUCCCGGCCUCCUCACUGGCGCCGGCUGGGCAACAUUCCGAGGGGACCGUCCCCUCGGUAAUGGCGAAUGGGACCCA [A16G G25A] | 0.192
41 | GGCCGGCAUGGUCCCGGCCUCCUCGCUGGCGCCGGCUGGGCAACAAUCCGAGGGGACCGUCCCCUCGGUAAUGGCGAAUGGGACCCA [A16G U46A] | 0.646
42 | GGCCGGCAUGGUCCCGGCCUCCUCGCUGGCGCCGGCUGGGCAACAUUCCGAGGGGACCGUCCCCUCGGUAAUGGCGAAUGGGACCCG [A16G A87G] | 0.892
43 | GGCCGGCAUGGUCCCGGCCUCCUCGCUGGCGCCGGCUGGGCAACAUUCCGAGGGGACCGUCCCCUCGGUAAUGGCGAAUGGGACCCU [A16G A87U] | 0.939
44 | GGCCGGCAUGGUCCCGGCCUCCUCGCUGGCGCCGGCUGGGCAACAUUCCGAGGGGACCGUCCCCUCGGUAAUGGCGAAUGUGACCCA [A16G G81U] | 0.489

Row | Variant | self-cleavage
45 | GGCCGGCAUGGUCCCGGCCUCCUCGCUGGCGCCGGCUGGGCAACAUUCCGAGGGGACCGUCCCCUCGGUAAUGGCGAAUGCGACCCA [A16G G81C] | 0.369
46 | GGCCGGCAUGGUCCCGGCCUCCUCGCUGGCGCCGGCUGUGCAACAUUCCGAGGGGACCGUCCCCUCGGUAAUGGCGAAUGGGACCCA [A16G G39U] | 0.582
47 | GGCCGGCAUGGUCCCGGCCUCCUCGCUGGCGCCGGCUGGGCAACCUUCCGAGGGGACCGUCCCCUCGGUAAUGGCGAAUGGGACCCA [A16G A45C] | 0.506
48 | GGCCGGCAUGGUCCCGGCCUCCUCGCUGGCGCCGGCUGGGCAACAUUCCGAGGCGACCGUCCCCUCGGUAAUGGCGAAUGGGACCCA [A16G G54C] | 1.08
49 | GGCCGGCAUGGUCCCUGCCUCCUCGCUGGCGCCGGCUGGGCAACAUUCCGAGGGGACCGUCCCCUCGGUAAUGGCGAAUGGGGCCCA [A16U A83G] | 0.567
50 | GGCCGGCAUGGUCCCUGCCUCCUCGCUGGCGCCGGCUGGGCAACAUUCCGAGGGGACCGUCCCCUCGGUAAUGGCGAAUGGGUCCCA [A16U A83U] | 0.584
51 | GGCCGGCAUGGUCCCGGCCUCCUCGCUGGCGCCGGCUGGCCAACAUUCCGAGGGGACCGUCCCCUCGGUAAUGGCGAAUGGGACCCA [A16G G40C] | 0.135
52 | GGCCGGCAUGGUCCCGGCCUCCUCGCUGGCGCCGGCUGGGCACCAUUCCGAGGGGACCGUCCCCUCGGUAAUGGCGAAUGGGACCCA [A16G A43C] | 0.277
53 | GGCCGGCAUGGUCCCGGCCUCCUCGCUGGCACCGGCUGGGCAACAUUCCGAGGGGACCGUCCCCUCGGUAAUGGCGAAUGGGACCCA [A16G G31A] | 0.46
54 | GGCCGGCAUGGUCCCGGCCUCCUCGCUGGCGCCGGCUGGGCAACAUUCCGAGGGGACCGUCUCCUCGGUAAUGGCGAAUGGGACCCA [A16G C62U] | 1.13
55 | GGCCGGCAUGGUCCCGGCCUCCUCGCUGGCGCCGGCUGGGCAACAUUCCGAGGGGACCGUCCCCUCGGUAAUGGCGAAUGGGACCAA [A16G C86A] | 0.76
56 | GGCCGGCAUGGUCCCGGCCUCCUCGCUGGCGCCGGCUGGGCAACAUUCCGAGGGGACCGUCCCCUCGGUAAUGGCGAAUGGGACCUA [A16G C86U] | 1.2
57 | GGCCGGCAUGGUCCCGGCCUCCUCGCUGGCGCCGGCUGGGCAACAUUCCGAGGGGACCGUCCCCUCGGUAAUGGCGAAUGGGACCGA [A16G C86G] | 1.2
58 | GGCCGGCAUGGUCCCGGCCUCCUCGCUGGCGCCGGCUGGGCAACAUUCCGAGGGGACCGUCCCCUCGGUAAUGGCGAAUGGGAUCCA [A16G C84U] | 0.525
59 | GGCCGGCAUGGUCCCGGCCUCCUCGCUGGCGCCGGCUGGGCAACAUUCCGAGGGGACCGUCCCCUCGGUAAUGGCGAAUGGGAACCA [A16G C84A] | 0.7
60 | GGCCGGCAUGGUCCCGGCCUCCUCGCUGGCGCCGGCUGGGCAACAUUCCGAGGGGACCGUCCCCUCGGUGAUGGCGAAUGGGACCCA [A16G A70G] | 1.33
61 | GGCCGGCAUGGUCCCGGCCUCCUCGCUGGCGCCGGCUGGGCAACAUUCCGAGGGGACCGUCCCCUCGGUCAUGGCGAAUGGGACCCA [A16G A70C] | 1.04
62 | GGCCGGCAUGGUCCCGGCCUCCUCGCUGGCGCCGACUGGGCAACAUUCCGAGGGGACCGUCCCCUCGGUAAUGGCGAAUGGGACCCA [A16G G35A] | 0.696
63 | GGCCGGCAUGGUCCCGACCUCCUCGCUGGCGCCGGCUGGGCAACAUUCCGAGGGGACCGUCCCCUCGGUAAUGGCGAAUGGGACCCA [A16G G17A] | 0.617
64 | GGCCGGCAUGGUCCCGGCCUCCUCGCUGGCGCCGGCUGGGUAACAUUCCGAGGGGACCGUCCCCUCGGUAAUGGCGAAUGGGACCCA [A16G C41U] | 1.22

— the RNAGym collection of RNA variant scans (doi:10.7554/elife.80360)
